# Target: human angiotensin-converting enzyme 2 extracellular domain fused to mouse Fc (hACE2-ECD-mFc) (human) (UniProt Q9BYF1)
# Experiment: ELISA
# Chain of human angiotensin-converting enzyme 2 extracellular domain fused to mouse Fc (hACE2-ECD-mFc) (human) (Q9BYF1 19-617): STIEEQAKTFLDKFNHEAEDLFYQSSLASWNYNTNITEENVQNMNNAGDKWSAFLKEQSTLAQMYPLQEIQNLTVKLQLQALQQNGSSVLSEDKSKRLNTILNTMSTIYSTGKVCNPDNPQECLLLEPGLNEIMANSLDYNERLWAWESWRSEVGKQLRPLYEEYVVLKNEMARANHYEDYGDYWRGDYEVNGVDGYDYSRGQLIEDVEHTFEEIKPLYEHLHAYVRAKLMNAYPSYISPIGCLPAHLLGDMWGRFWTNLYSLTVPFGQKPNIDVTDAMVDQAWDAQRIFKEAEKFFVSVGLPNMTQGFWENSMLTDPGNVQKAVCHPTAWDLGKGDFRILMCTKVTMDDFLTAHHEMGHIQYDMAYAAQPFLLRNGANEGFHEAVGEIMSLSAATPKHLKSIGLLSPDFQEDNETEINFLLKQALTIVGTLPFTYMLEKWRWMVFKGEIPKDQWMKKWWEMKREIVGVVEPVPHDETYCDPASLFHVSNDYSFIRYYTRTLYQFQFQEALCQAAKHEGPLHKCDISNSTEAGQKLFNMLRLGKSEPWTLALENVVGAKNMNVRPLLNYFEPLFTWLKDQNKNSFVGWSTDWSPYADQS
substance,measurement,value
"SARS-CoV-2 S-RBD reference (spike receptor-binding domain, reference type) (from UniProt P0DTC2 319-541) (domain or fragment)",IC50,123 nM

# From article PMC8632240
